Drawing on patent publication US20150133367A1 (University of Pennsylvania, published 2015), this text covers Ki for eleven molecules.

The term Ki denotes a dissociation constant, usually derived from enzyme kinetics or from competition with a known ligand.

Several values for one entry are separate records, joined by “and”; a condition that tells them apart may be missing. Identical values can stand only once. Like-named read-outs stand apart in the source and are kept apart here. Positions of bridges follow the written chain, without caps; N, C: chain ends. Non-standard residues stand in square brackets, D forms with d. No end group written: not given here. alpha,alpha'‑meta‑xylylene = alpha,alpha'-meta-xylylene linker (from a,a'-dibromo-meta-xylene) bridging two cysteines via bis-thioether; Bip = N[C@@H](Cc1ccc(-c2ccccc2)cc1)C(=O)O; 2Nal = N[C@@H](Cc1ccc2ccccc2c1)C(=O)O

What all share (experiment): fluorescence-based enzyme inhibition assay
Assay [1] deals with Calpain-1.
Assay [2] has as its target T1, Calpain-1.
T1 chain 1: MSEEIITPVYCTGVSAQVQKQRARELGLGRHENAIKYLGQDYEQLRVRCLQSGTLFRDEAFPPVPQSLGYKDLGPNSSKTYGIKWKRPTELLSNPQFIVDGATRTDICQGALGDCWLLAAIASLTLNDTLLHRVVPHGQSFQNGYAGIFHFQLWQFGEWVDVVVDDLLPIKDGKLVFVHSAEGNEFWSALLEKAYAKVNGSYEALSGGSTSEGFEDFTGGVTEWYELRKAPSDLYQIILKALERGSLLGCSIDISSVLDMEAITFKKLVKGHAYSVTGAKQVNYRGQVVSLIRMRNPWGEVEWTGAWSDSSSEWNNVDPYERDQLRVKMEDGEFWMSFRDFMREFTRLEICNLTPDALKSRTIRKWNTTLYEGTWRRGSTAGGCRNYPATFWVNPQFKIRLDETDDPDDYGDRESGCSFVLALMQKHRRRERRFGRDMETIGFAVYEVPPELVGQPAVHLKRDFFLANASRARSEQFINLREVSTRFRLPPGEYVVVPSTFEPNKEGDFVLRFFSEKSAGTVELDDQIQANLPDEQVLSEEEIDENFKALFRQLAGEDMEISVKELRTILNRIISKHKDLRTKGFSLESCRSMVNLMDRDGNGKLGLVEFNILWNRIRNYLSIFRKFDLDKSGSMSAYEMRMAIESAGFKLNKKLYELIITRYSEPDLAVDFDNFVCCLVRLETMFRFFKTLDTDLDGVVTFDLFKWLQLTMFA
T1 chain 2: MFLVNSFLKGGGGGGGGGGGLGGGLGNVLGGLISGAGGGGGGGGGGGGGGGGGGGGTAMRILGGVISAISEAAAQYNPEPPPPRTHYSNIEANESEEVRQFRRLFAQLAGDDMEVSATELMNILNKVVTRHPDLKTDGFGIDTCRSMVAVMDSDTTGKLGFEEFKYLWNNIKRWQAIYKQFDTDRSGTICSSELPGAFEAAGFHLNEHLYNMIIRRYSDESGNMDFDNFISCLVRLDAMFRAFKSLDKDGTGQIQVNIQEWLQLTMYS

Assay [3] addresses T2, Cathepsin S (UniProt P25774 115-331).
Assay [4] concerns the target T3, Cathepsin K (UniProt P43235 115-329).
T3 sequence (looked up): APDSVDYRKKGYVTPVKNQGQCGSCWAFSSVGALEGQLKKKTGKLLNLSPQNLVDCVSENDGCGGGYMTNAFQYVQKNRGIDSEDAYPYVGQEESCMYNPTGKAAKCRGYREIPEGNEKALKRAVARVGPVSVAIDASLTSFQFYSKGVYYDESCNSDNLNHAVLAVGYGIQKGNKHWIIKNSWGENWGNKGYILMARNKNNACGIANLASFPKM

In assay [5] the target is T4, Cathepsin L (UniProt P07711 114-333).
The target of assay [6] is T4, Cathepsin L. The source holds these as a separate data set.
The target in assay [7] is T4, Cathepsin L. This is another data set of the same source.
Assay [8] deals with T1, Calpain-1.
For assay [9], the target named is T2, Cathepsin S. This is another data set of the same source.
Assay [10] addresses T3, Cathepsin K. The source holds these as a separate data set.
The target of assay [11] is T4, Cathepsin L. This is another data set of the same source.
The target of assay [12] is T3, Cathepsin K. This is another data set of the same source.

T2 sequence (P25774 115-331 limits assumed): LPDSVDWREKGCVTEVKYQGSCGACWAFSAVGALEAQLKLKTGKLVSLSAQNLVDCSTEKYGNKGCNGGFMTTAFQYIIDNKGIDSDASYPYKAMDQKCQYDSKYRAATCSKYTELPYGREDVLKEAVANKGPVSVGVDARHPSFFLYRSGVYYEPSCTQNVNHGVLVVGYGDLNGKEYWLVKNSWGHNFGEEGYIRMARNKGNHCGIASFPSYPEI
T4 sequence (P07711 114-333 limits assumed): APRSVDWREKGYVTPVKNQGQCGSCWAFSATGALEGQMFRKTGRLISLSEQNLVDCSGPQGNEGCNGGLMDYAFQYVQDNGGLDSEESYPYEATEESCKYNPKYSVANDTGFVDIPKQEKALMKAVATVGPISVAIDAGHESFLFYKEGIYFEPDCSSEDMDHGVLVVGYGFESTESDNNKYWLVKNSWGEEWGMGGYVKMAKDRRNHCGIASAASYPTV

B1: IPPK(bip)CELLC (SEQ ID NO:82) (peptide)
peptide: IPPK[Bip]CELLC
modifications: linker 6-10 via alpha,alpha'‑meta‑xylylene
Take B1: the affinity in the assay with Calpain-1 [1], expressed as Ki, was 9.65 µM.

B2: SCE(bip)RCVMNG(nap) (SEQ ID NO:9) (peptide)
peptide: SCE[Bip]RCVMNG[2Nal]
modifications: linker 2-6 via alpha,alpha'‑meta‑xylylene
notes: also called compound (IIIa)
In turn, B2 displayed an inhibition constant (Ki) in the assay with Calpain-1 [2] of 19.8 µM.

B3: QCEVVCKMTGL (SEQ ID NO:34) (peptide)
peptide: QCEVVCKMTGL
modifications: linker 2-6 via alpha,alpha'‑meta‑xylylene
On to B3, for which the results for the Ki with Cathepsin S [3], in the assay with Cathepsin K [4] and in the assay with Cathepsin L [5] were 43.5 µM, 76.8 µM and 46.2 µM, respectively.

B4: SCESVCKMTGL (SEQ ID NO:37) (peptide)
peptide: SCESVCKMTGL
modifications: linker 2-6 via alpha,alpha'‑meta‑xylylene
Take B4: the inhibition constant (Ki) in the assay with Cathepsin S [3] is 10.8 µM; with Cathepsin K [4], greater than 100 µM.

B5: SCEVVCKPTGL (SEQ ID NO:39) (peptide)
peptide: SCEVVCKPTGL
modifications: linker 2-6 via alpha,alpha'‑meta‑xylylene
On to B5, for which the inhibition constant Ki in the assay with Cathepsin S [3] is 58.3 µM; in the assay with Cathepsin K [4], greater than 100 µM; in the assay with Cathepsin L [5] it was 48 µM.

B6: SCEVVCKMTGP (SEQ ID NO:44) (peptide)
peptide: SCEVVCKMTGP
modifications: linker 2-6 via alpha,alpha'‑meta‑xylylene
Consider B6, for which the inhibition constant (Ki) is 27.8 µM with Cathepsin S [3]; 1.34 µM and 0.659 µM with Cathepsin K [4].

B7: SECFRQCMNGF (SEQ ID NO:2) (peptide)
peptide: SECFRQCMNGF
modifications: linker 3-7 via alpha,alpha'‑meta‑xylylene
B7 had an inhibitory constant (Ki) with Cathepsin L [6] of 84.7 µM.

B8: IPPK(OBn-Y)CELLC (SEQ ID NO:83) (peptide)
peptide: IPPKXCELLC
modifications: Cys6 and Cys10 (i,i+4) linked by alpha,alpha'-meta-xylylene; residue 5 OBn-Y = O-benzyltyrosine
As for B8, the results for the Ki with Calpain-1 [1] and in the assay with Cathepsin L [7] were 21.3 µM and 16.7 µM, respectively.

B9: WWEWVCSLMCS (SEQ ID NO:25) (peptide)
peptide: WWEWVCSLMCS
modifications: linker 6-10 via alpha,alpha'‑meta‑xylylene
notes: triple mutant
As to B9, the Ki with Calpain-1 [8] worked out at 85.5 µM; with Cathepsin S [9], 6.74 µM; with Cathepsin K [10], 19.5 µM; with Cathepsin L [11] it was 16.1 µM.

B10: WWEWWCSLMCS (SEQ ID NO:26) (peptide)
peptide: WWEWWCSLMCS
modifications: linker 6-10 via alpha,alpha'‑meta‑xylylene
notes: quadruple mutant; also called compound (IVa)
As for B10, the inhibitory constant (Ki) in the assay with Calpain-1 [8] came out at 66.7 µM; in the assay with Cathepsin S [9], 1.23 µM; with Cathepsin K [10], 37.9 µM; with Cathepsin L [11], 28.1 µM.

B11: SCEFRCVMNGF (SEQ ID NO:3) (peptide)
peptide: SCEFRCVMNGF
modifications: linker 2-6 via alpha,alpha'‑meta‑xylylene
Regarding B11, the inhibitory constant (Ki) with Cathepsin K [12] is greater than 100 µM; with Cathepsin L [6], 29.4 µM.
